These are literature values, as cited in paper PMC9477731.

The target of the data set is CD28 (Homo sapiens) (UniProt P10747).

pKd: −log10 of the molar value.

A word on the pKd: it is the Kd on a negative log10 scale, so that one unit is a factor of ten. Turning to CD80 (from UniProt P33681), the pKd is 5.40.
